Two molecules from paper doi:10.1101/2022.11.07.515236 (bioRxiv, 2022) can be followed below.

In assay [1] the target is T1, recombinant human ACTRIIA-Fc (human, UniProt P27037). Kind of assay: BLI. For orientation: In BLI a coated tip is dipped into the sample, and binding shifts an interference pattern.
The target in assay [2] is T2, Fc chimera of recombinant human type II BMP receptor BMPRII (human, UniProt Q13873).
T2 sequence: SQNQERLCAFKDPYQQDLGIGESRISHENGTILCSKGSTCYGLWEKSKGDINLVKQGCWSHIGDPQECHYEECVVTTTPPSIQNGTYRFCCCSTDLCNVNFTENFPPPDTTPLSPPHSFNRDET
Kind of assay: BLI.

Assay [3] deals with T1, recombinant human ACTRIIA-Fc. Kind of assay: SPR. In general terms: Surface plasmon resonance follows binding to a sensor surface in real time, without labels.
The target of assay [4] is T2, Fc chimera of recombinant human type II …. Kind of assay: SPR.

T1 sequence (P27037 20-135): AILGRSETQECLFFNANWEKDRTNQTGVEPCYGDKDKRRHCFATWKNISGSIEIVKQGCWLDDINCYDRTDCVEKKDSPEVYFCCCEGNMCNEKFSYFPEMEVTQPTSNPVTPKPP

B1: recombinant mouse GDF3 (ligand)
chain: AAISVPKGFCRNFCHRHQLFINFQDLGWHKWVIAPKGFMANYCHGECPFSMTTYLNSSNYAFMQALMHMADPKVPKAVCVPTKLSPISMLYQDSDKNVILRHYEDMVVDECGCG
On to B1, for which the binding result in assay [1] and in assay [2] was “binds” in each case.

B2: recombinant human GDF3 (ligand)
chain: AAIPVPKLSCKNLCHRHQLFINFRDLGWHKWIIAPKGFMANYCHGECPFSLTISLNSSNYAFMQALMHAVDPEIPQAVCIPTKLSPISMLYQDNNDNVILRHYEDMVVDECGCG
Turning to B2, the binding result in assay [3] and in assay [4] was “binds” throughout.
